In US20060257938A1, “Method of screening for drugs that block ligand binding to a lipid binding protein” (priority 2005, published 2006):
Several values for one entry are separate records, joined by “and”; a condition that tells them apart may be missing. Equal values may be shown once.

How the values were obtained:
Format in all cases: binding
[1] = Probe fluorescence ratio response to linolenic acid relative to ADIFAB2; settings: response relative to ADIFAB2
Summary of the method: (§1)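 Each fatty acid's response was expressed relative to ADIFAB2, the rI-FABP-L72A probe, as ΔR/ΔRreference. ΔR is the change in the background-corrected two-wavelength intensity ratio R=Fλ1/Fλ2 from its analyte-free baseline R0. Emission was read near about 420-480 nm for unbound and about 495-580 nm for FFA-bound probe.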

[2] = Probe fluorescence ratio response to oleic acid relative to ADIFAB2; settings: response relative to ADIFAB2
Summary of the method: as §1

[3] = Probe fluorescence ratio response to palmitic acid relative to ADIFAB2; settings: response relative to ADIFAB2
Summary of the method: as §1

[4] = Probe fluorescence ratio response to linoleic acid relative to ADIFAB2; settings: response relative to ADIFAB2
Summary of the method: as §1

[5] = Probe fluorescence ratio response to arachidonic acid relative to ADIFAB2; settings: arachidonic acid; response relative to ADIFAB2
Summary of the method: as §1

Row | Molecule | DR/DR LNA [1] | DR/DR OA [2] | DR/DR PA [3] | DR/DR LA [4] | DR/DR AA [5]
1 | 115D1, 72A (protein, listed as Rattus norvegicus, PEPTIDE (1)...(131) wild-type rat intestinal fatty acid binding protein) AFDGTWKVDRNENYEKFMEKMGINVVKRKLGAHDNLKLTITQEGNKFTVKESSNFRNIDVVFELGVDFAYSAADGTELTGTWTMEGNKLVGKFKRVDNGKELIAVREISGNELIDTYTYEGVEAKRIFKKE | 1.20 | 1.21 | 1.14 | 1.19 | 1.17
2 | 115E1, 72A (protein, listed as Rattus norvegicus, PEPTIDE (1)...(131) wild-type rat intestinal fatty acid binding protein) AFDGTWKVDRNENYEKFMEKMGINVVKRKLGAHDNLKLTITQEGNKFTVKESSNFRNIDVVFELGVDFAYSAADGTELTGTWTMEGNKLVGKFKRVDNGKELIAVREISGNELIETYTYEGVEAKRIFKKE | 0.10 | 0.10 | 0.08 | 0.15 | 0.12
3 | 115F1, 72A (protein, listed as Rattus norvegicus, PEPTIDE (1)...(131) wild-type rat intestinal fatty acid binding protein) AFDGTWKVDRNENYEKFMEKMGINVVKRKLGAHDNLKLTITQEGNKFTVKESSNFRNIDVVFELGVDFAYSAADGTELTGTWTMEGNKLVGKFKRVDNGKELIAVREISGNELIFTYTYEGVEAKRIFKKE | 1.49 | 1.41 | 0.77 | 1.46 | 1.36
4 | 102A, 72A (protein, listed as Rattus norvegicus, PEPTIDE (1)...(131) wild-type rat intestinal fatty acid binding protein) AFDGTWKVDRNENYEKFMEKMGINVVKRKLGAHDNLKLTITQEGNKFTVKESSNFRNIDVVFELGVDFAYSAADGTELTGTWTMEGNKLVGKFKRVDNGKEAIAVREISGNELIQTYTYEGVEAKRIFKKE | 0.44 | 0.52 | 0.20 | 0.35 | 0.45
5 | 115H1, 72A (protein, listed as Rattus norvegicus, PEPTIDE (1)...(131) wild-type rat intestinal fatty acid binding protein) AFDGTWKVDRNENYEKFMEKMGINVVKRKLGAHDNLKLTITQEGNKFTVKESSNFRNIDVVFELGVDFAYSAADGTELTGTWTMEGNKLVGKFKRVDNGKELIAVREISGNELIHTYTYEGVEAKRIFKKE | 0.70 | 0.68 | 0.51 | 0.74 | 0.89
6 | 115I3, 72A (protein, listed as Rattus norvegicus, PEPTIDE (1)...(131) wild-type rat intestinal fatty acid binding protein) AFDGTWKVDRNENYEKFMEKMGINVVKRKLGAHDNLKLTITQEGNKFTVKESSNFRNIDVVFELGVDFAYSAADGTELTGTWTMEGNKLVGKFKRVDNGKELIAVREISGNELIITYTYEGVEAKRIFKKE | 0.80 | 0.88 | 0.84 | 0.81 | 0.87
7 | 115K3, 72A (protein, listed as Rattus norvegicus, PEPTIDE (1)...(131) wild-type rat intestinal fatty acid binding protein) AFDGTWKVDRNENYEKFMEKMGINVVKRKLGAHDNLKLTITQEGNKFTVKESSNFRNIDVVFELGVDFAYSAADGTELTGTWTMEGNKLVGKFKRVDNGKELIAVREISGNELIKTYTYEGVEAKRIFKKE | 1.32 | 1.25 | 1.18 | 1.23 | 1.26
8 | 115L3, 72A (protein, listed as Rattus norvegicus, PEPTIDE (1)...(131) wild-type rat intestinal fatty acid binding protein) AFDGTWKVDRNENYEKFMEKMGINVVKRKLGAHDNLKLTITQEGNKFTVKESSNFRNIDVVFELGVDFAYSAADGTELTGTWTMEGNKLVGKFKRVDNGKELIAVREISGNELILTYTYEGVEAKRIFKKE | 1.29 | 1.25 | 1.15 | 1.24 | 1.26
9 | 115N2, 72A (protein, listed as Rattus norvegicus, PEPTIDE (1)...(131) wild-type rat intestinal fatty acid binding protein) AFDGTWKVDRNENYEKFMEKMGINVVKRKLGAHDNLKLTITQEGNKFTVKESSNFRNIDVVFELGVDFAYSAADGTELTGTWTMEGNKLVGKFKRVDNGKELIAVREISGNELINTYTYEGVEAKRIFKKE | 0.73 | 0.71 | 0.56 | 0.78 | 0.92
10 | 115P1, 72A (protein, listed as Rattus norvegicus, PEPTIDE (1)...(131) wild-type rat intestinal fatty acid binding protein) AFDGTWKVDRNENYEKFMEKMGINVVKRKLGAHDNLKLTITQEGNKFTVKESSNFRNIDVVFELGVDFAYSAADGTELTGTWTMEGNKLVGKFKRVDNGKELIAVREISGNELIPTYTYEGVEAKRIFKKE | 1.35 | 1.26 | 0.70 | 1.37 | −0.17
11 | 115R1, 72A (protein, listed as Rattus norvegicus, PEPTIDE (1)...(131) wild-type rat intestinal fatty acid binding protein) AFDGTWKVDRNENYEKFMEKMGINVVKRKLGAHDNLKLTITQEGNKFTVKESSNFRNIDVVFELGVDFAYSAADGTELTGTWTMEGNKLVGKFKRVDNGKELIAVREISGNELIRTYTYEGVEAKRIFKKE | 1.43 | 1.36 | 0.70 | 1.45 | 1.40
12 | 115S1, 72A (protein, listed as Rattus norvegicus, PEPTIDE (1)...(131) wild-type rat intestinal fatty acid binding protein) AFDGTWKVDRNENYEKFMEKMGINVVKRKLGAHDNLKLTITQEGNKFTVKESSNFRNIDVVFELGVDFAYSAADGTELTGTWTMEGNKLVGKFKRVDNGKELIAVREISGNELISTYTYEGVEAKRIFKKE | 1.51 | 1.41 | 0.77 | 1.51 | 1.55
13 | 115T3, 72A (protein, listed as Rattus norvegicus, PEPTIDE (1)...(131) wild-type rat intestinal fatty acid binding protein) AFDGTWKVDRNENYEKFMEKMGINVVKRKLGAHDNLKLTITQEGNKFTVKESSNFRNIDVVFELGVDFAYSAADGTELTGTWTMEGNKLVGKFKRVDNGKELIAVREISGNELITTYTYEGVEAKRIFKKE | 0.54 | 0.46 | 0.49 | 0.45 | 0.57
14 | 115V2, 72A (protein, listed as Rattus norvegicus, PEPTIDE (1)...(131) wild-type rat intestinal fatty acid binding protein) AFDGTWKVDRNENYEKFMEKMGINVVKRKLGAHDNLKLTITQEGNKFTVKESSNFRNIDVVFELGVDFAYSAADGTELTGTWTMEGNKLVGKFKRVDNGKELIAVREISGNELIVTYTYEGVEAKRIFKKE | 0.93 | 0.91 | 0.85 | 0.87 | 0.84
15 | 115Y1, 72A (protein, listed as Rattus norvegicus, PEPTIDE (1)...(131) wild-type rat intestinal fatty acid binding protein) AFDGTWKVDRNENYEKFMEKMGINVVKRKLGAHDNLKLTITQEGNKFTVKESSNFRNIDVVFELGVDFAYSAADGTELTGTWTMEGNKLVGKFKRVDNGKELIAVREISGNELIYTYTYEGVEAKRIFKKE | 1.27 | 1.23 | 0.73 | 1.38 | 1.42
16 | 117A, 72A (protein, listed as Rattus norvegicus, PEPTIDE (1)...(131) wild-type rat intestinal fatty acid binding protein) AFDGTWKVDRNENYEKFMEKMGINVVKRKLGAHDNLKLTITQEGNKFTVKESSNFRNIDVVFELGVDFAYSAADGTELTGTWTMEGNKLVGKFKRVDNGKELIAVREISGNELIQTATYEGVEAKRIFKKE | 0.62 and 0.631 | 0.93 and 0.947 | 0.32 and 0.331 | 1.01 and 1.045 | 1.27 and 1.332
17 | 117C, 72A (protein, listed as Rattus norvegicus, PEPTIDE (1)...(131) wild-type rat intestinal fatty acid binding protein) AFDGTWKVDRNENYEKFMEKMGINVVKRKLGAHDNLKLTITQEGNKFTVKESSNFRNIDVVFELGVDFAYSAADGTELTGTWTMEGNKLVGKFKRVDNGKELIAVREISGNELIQTCTYEGVEAKRIFKKE | −0.13 | −0.24 | −0.12 | −0.19 | −0.17
